Assay results as given in the supplement of paper PMC10567573.
± gives the standard deviation.

Assay: protein stability index of a GFP-peptide fusion (GPS, HEK-293T) (PSI 1-6); higher = more stable
[1] = treatment: DMSO, c terminus: a fixed tail appended
[2] = treatment: MLN4924 1 uM, 8 h, c terminus: a fixed tail appended
[3] = treatment: DMSO, c terminus: native
[4] = treatment: MLN4924 1 uM, 8 h, c terminus: native
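Also: 24-mer peptide tiles fused after GFP, lentivirally expressed, FACS-sorted into six equal bins by GFP/DsRed ratio, decoded by Illumina sequencing, PSI is the read-weighted mean bin number.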

## KPPYSYATLICMAMQASKATKITL [FOXJ1]
[1]
  protein stability index: 2.78 ± 0.57
[2]
  protein stability index: 2.8 ± 0.53

## HYDLLNLNGTKVAEGHKASFCLED [LOXL2]
[1]
  protein stability index: 4.12 ± 0.5
[2]
  protein stability index: 4.26 ± 0.34

## SAVTSVRILQDEQYLMASDMAGKI [DCAF4]
[1]
  protein stability index: 3.33 ± 0.18
[2]
  protein stability index: 3.29 ± 0.27

## GWGTVFSLESEEEEYPGITAEDSN [BCL2L13]
[1]
  protein stability index: 5.05 ± 0.23
[2]
  protein stability index: 5.03 ± 0.38

## LGYLLDKETLRLHPDIFLPSEICD [ZER1]
[1]
  protein stability index: 2.4 ± 0.21
[2]
  protein stability index: 2.46 ± 0.17

## MEEASEGGGNDRVRNLQSEVEGVK [VAMP8]
[1]
  protein stability index: 5.49 ± 0.19
[2]
  protein stability index: 5.38 ± 0.16

## NLISPVRNGAVRRFGQTIQSFTLR [NET1]
[1]
  protein stability index: 2.65 ± 0.32
[2]
  protein stability index: 2.7 ± 0.14

## KCLKFLGSRHPTLVLPLVPELLST [INTS4]
[1]
  protein stability index: 2.29 ± 0.41
[2]
  protein stability index: 2.23 ± 0.18

## QPSQQQQPPPQEEPGTPSSSPDDK [KLHL14]
[1]
  protein stability index: 5.6 ± 0.26
[2]
  protein stability index: 5.59 ± 0.15

## IQKRNQRQSGDRRQLPPPPTPANE [WAS]
[1]
  protein stability index: 5.29 ± 0.23
[2]
  protein stability index: 5.16 ± 0.21

## IPAVLTVSMLGYPFILPDMVGGNA [MYORG]
[1]
  protein stability index: 2.87 ± 0.51
[2]
  protein stability index: 2.63 ± 0.38

## DAGSPYLIGLISDRLRRNWPPSFL [SPNS1]
[1]
  protein stability index: 2.22 ± 0.28
[2]
  protein stability index: 2.08 ± 0.25

## ALGSRGWEPFDWGRLLEALCREEP [FANCE]
[1]
  protein stability index: 2.61 ± 0.2
[2]
  protein stability index: 2.82 ± 0.33

## HVLLEGEGLGQSLGNFKDDLLNVC [TRIM29]
[1]
  protein stability index: 3.06 ± 0.041
[2]
  protein stability index: 3.1 ± 0.17

## CTDHELENHSMYCVQCKMPVCYQC [TRIM9]
[1]
  protein stability index: 4.23 ± 0.23
[2]
  protein stability index: 4.33 ± 0.36

## LYNMDLSDDHIRVIVQLHKLRHLD [ZER1]
[1]
  protein stability index: 2.25 ± 0.38
[2]
  protein stability index: 2.56 ± 0.37

## PPARPRPRSPECRMIPGQPPASAR [IRX6]
[1]
  protein stability index: 4.95 ± 0.21
[2]
  protein stability index: 4.9 ± 0.12

## QAFQLPKLGALLSRCRKLVEYFQQ [ZBED1]
[1]
  protein stability index: 2.52 ± 0.5
[2]
  protein stability index: 2.43 ± 0.29

## TMGMGMPNIAMTSGTVQPKQDAFA [CLINT1]
[1]
  protein stability index: 3.9 ± 0.17
[2]
  protein stability index: 3.98 ± 0.21

## TAPLTELLHSRNEGVATYAAAVLF [CTNNB1]
[1]
  protein stability index: 2.25 ± 0.46
[2]
  protein stability index: 2.36 ± 0.34

## RACSHLIRLMQRCWQGDPRVRPTF [RIPK4]
[1]
  protein stability index: 2.87 ± 0.45
[2]
  protein stability index: 2.83 ± 0.2

## ISSSSFGAEPSAPGGGGSPGACPA [RTN3]
[1]
  protein stability index: 4.72 ± 0.51
[2]
  protein stability index: 4.97 ± 0.089

## YPSYKVREKIETVKYPTYPEAEK [FUT8]
[3]
  protein stability index: 4.07 ± 0.19
[4]
  protein stability index: 4.16 ± 0.57

## VQLRFCGRQPCGRFLRAYREGALR [TRADD]
[1]
  protein stability index: 2.61 ± 0.53
[2]
  protein stability index: 2.29 ± 0.65

## PNYEFKLGKITFIRNSRPLVKKVE [UFD1]
[1]
  protein stability index: 2.62 ± 0.5
[2]
  protein stability index: 2.77 ± 0.35

## LDMDEGTLSFIVDGQYLGVAFRGL [SPSB4]
[1]
  protein stability index: 2.6 ± 0.46
[2]
  protein stability index: 2.26 ± 0.59

## DLNNCKNNLEPILEGYISNLRKQL [KRT71]
[1]
  protein stability index: 2.58 ± 0.21
[2]
  protein stability index: 2.76 ± 0.5

## GKDQGINIRQKVKELVEFAQDDDR [CLINT1]
[1]
  protein stability index: 5.15 ± 0.42
[2]
  protein stability index: 4.91 ± 0.28

## PVRKLYDDCSSTIVEDPQTKCEYM [ESRRG]
[1]
  protein stability index: 4.47 ± 0.21
[2]
  protein stability index: 4.64 ± 0.19

## KRQVTHFQFLSWPDYGVPSSAASL [PTPN9]
[1]
  protein stability index: 2.21 ± 0.35
[2]
  protein stability index: 2.38 ± 0.18

## RMAAPRAEALFDFTGNSKLELNFK [NCF4]
[1]
  protein stability index: 3.33 ± 0.2
[2]
  protein stability index: 3.46 ± 0.28

## ISAVNYDFDEEYFSNTSELAKDFI [DAPK3]
[1]
  protein stability index: 3.01 ± 0.21
[2]
  protein stability index: 3.28 ± 0.58

## KARSYSYPHCTGISQQDPESDSQG [ZC2HC1C]
[1]
  protein stability index: 5.28 ± 0.28
[2]
  protein stability index: 5.25 ± 0.076

## KLPFCAMGVSSVIHPKNPHAPTIH [CPOX]
[1]
  protein stability index: 2.52 ± 0.2
[2]
  protein stability index: 2.52 ± 0.31

## ATQIQQLLQDKQFELALQLAEMKD [VPS39]
[1]
  protein stability index: 3.11 ± 0.32
[2]
  protein stability index: 3.41 ± 0.43

## TGYPYRYPALREKSKKYSDVEVPA [ADD1]
[1]
  protein stability index: 3.67 ± 0.081
[2]
  protein stability index: 3.66 ± 0.044

## LIPLANTGIVNHTHSRMGSIMSTG [CARM1]
[1]
  protein stability index: 2.59 ± 0.12
[2]
  protein stability index: 2.47 ± 0.14

## IEAGAHMDATNAFKKTAYELLDEK [FEM1A]
[1]
  protein stability index: 4.79 ± 0.21
[2]
  protein stability index: 5.04 ± 0.34

## HVKFRSLSMVSECLFSLINGDDMF [MCOLN1]
[1]
  protein stability index: 2.84 ± 0.45
[2]
  protein stability index: 2.61 ± 0.45

## HESEGGRTPLMKAARAGHVCTVQF [ANKRD17]
[1]
  protein stability index: 2.71 ± 0.28
[2]
  protein stability index: 2.6 ± 0.33

## LRDTYKLWVPQPPPRTIKRTRRRL [PWWP2B]
[1]
  protein stability index: 3.46 ± 0.19
[2]
  protein stability index: 3.64 ± 0.21

## SYKARLPLRLFLIIANTMAFQNDV [SCD]
[1]
  protein stability index: 2.66 ± 0.53
[2]
  protein stability index: 2.5 ± 0.2

## AQTFLFQGQPVVNRPLSLKDQQTF [TRADD]
[1]
  protein stability index: 3.25 ± 0.26
[2]
  protein stability index: 3.39 ± 0.23

## VIAKPSELTSVTAWMLCKLLDKAG [ALDH8A1]
[1]
  protein stability index: 2.3 ± 0.2
[2]
  protein stability index: 2.3 ± 0.23

## DESGYVSGYKHAGTYDQKVQGGK [TPPP]
[3]
  protein stability index: 5.24 ± 0.15
[4]
  protein stability index: 5.4 ± 0.24
